Data reported in patent publication US20190002529A1 (GOVERNMENT OF THE UNITED STATES OF AMERICA AS REPRESENTED …, published 2019).

Target: T1, Eptatretus stoutii FIL-Alpha including a polyhistidine tag (Eptatretus stoutii, UniProt Q90501 1-643)
T1 construct: Recombinant protein expressed in E. coli; also called alpha protein; hagfish intermediate filament alpha protein
T1 sequence: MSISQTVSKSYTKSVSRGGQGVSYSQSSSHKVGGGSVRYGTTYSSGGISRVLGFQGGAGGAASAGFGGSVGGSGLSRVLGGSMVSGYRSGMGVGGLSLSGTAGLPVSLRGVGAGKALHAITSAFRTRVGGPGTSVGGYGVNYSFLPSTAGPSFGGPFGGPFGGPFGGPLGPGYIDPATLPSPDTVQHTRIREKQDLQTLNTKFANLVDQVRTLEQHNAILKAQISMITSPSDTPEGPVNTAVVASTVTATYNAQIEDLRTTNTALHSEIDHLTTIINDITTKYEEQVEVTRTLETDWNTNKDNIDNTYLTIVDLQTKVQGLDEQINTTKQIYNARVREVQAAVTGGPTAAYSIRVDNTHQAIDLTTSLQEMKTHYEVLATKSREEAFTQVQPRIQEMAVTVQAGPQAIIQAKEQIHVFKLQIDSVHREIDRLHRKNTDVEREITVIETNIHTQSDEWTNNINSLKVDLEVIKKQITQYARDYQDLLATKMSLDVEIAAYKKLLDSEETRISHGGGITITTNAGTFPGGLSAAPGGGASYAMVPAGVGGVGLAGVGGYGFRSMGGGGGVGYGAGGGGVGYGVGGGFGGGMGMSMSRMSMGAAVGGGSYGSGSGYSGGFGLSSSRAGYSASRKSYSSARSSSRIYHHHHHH
Assay: filament/thread self-assembly of refolded recombinant His-tagged proteins; filaments observed by microscopy

B1: Eptatretus stoutii FIL-Gamma including a polyhistidine tag (other)
chain: MASHSSVSYRSVRTGGTSAMIGSSGYGGSSSSRAMGLGMGAAGLSMGGGSFRVGSAGIGGMGISSGIGGMGISSRAGGMSAYGGAASGGAGGFVSGGVPMLGYGGGAGGFIGGVSPGIMASPAFTAGRAITSAGMSGVVGTLGPAGGMVPSLVSRDEVKNILGTLNQRLASYVDKVRQLTIENETMEEELKNLTGGVPMSPDSTVNLENVETQVTEMLTEVSNLTLERVRLEIDVDHLRATADEIKSKYEFELGVRMQLETDIANMKRDLEAANDMRVDLDSKFNFLTEELTFQRKTQMEELNTLKQQFGRLGPVQTSVIELDNVKSVNLTDALNVMREEYQQVVTKNVQEAETYCKMQIDQIQGISTQTTEQISILDKEINTLEKELQPLNVEYQRLLTTYQTLGDRLTDLQNRESIDLVQFQNTYTRYEQEIEGNQVDLQRQLVTYQQLLDVKTALDAEIATYKKLLEGQELMVRTAMADDFAHATVVRSGTLGGASSSSVGYGASSTTLGAISGGYSTGGGASYSAGAGGASYSAGAGGASYGVGGGYSGGSSAMMEGSSSGGHSMYSSSSMKRSSSKSASASAGGYGTSGHDSTIILQQHHHHHH
notes: also called gamma protein; hagfish intermediate filament gamma protein
binding result: binds
